Assay results as given in patent US20170360796A1, “BTK INHIBITOR COMBINATIONS AND DOSING REGIMEN” (PHARMACYCLICS LLC, priority 2014, published 2017).

How the values were obtained:
[1] = system: patients with relapsed/refractory CLL and related diseases; experiment: Phase 1b/2 study of ibrutinib combined with ofatumumab (NCT01217749): efficacy; type: in vivo, human; conditions: group 3, ofatumumab lead-in before initiating ibrutinib
Text: Key eligibility criteria also included failure of ≧2 prior therapies including a nucleoside analogue (unless contraindicated); ≧10% expression of CD20 on CLL/SLL cells by flow cytometry; ECOG performance status ≦2; and adequate end-organ function.
This phase 1 b/2, single-center, open-label, sequential-group study was approved by the institutional review board and conducted in accordance with the principles of the Declaration of Helsinki and the International Conference on Harmonization Guidelines for Good Clinical Practice.

[2] = system: patients with relapsed/refractory CLL; conditions: single agent; cited from earlier work
[3] = system: B-cell lines including CLL cells; conditions: compared with rituximab; cited from earlier work

## ofatumumab: anti-CD20 monoclonal antibody that binds to an epitope distinct from that for rituximab
[1]
  patients who progressed (PD) on ofatumumab monotherapy: 17%
[2]
  Major bleeding events ≧ grade 3: 1.6%
  peripheral sensory neuropathy (grade 1 and 2): 13%
[3]
  complement-dependent cytotoxicity and NK-cell ADCC: more potent
